A protein production outcome set (Wang et al. 2014)

Test: label from the status in PepcDB records

Sequence | protein production
MHLRLSTLAGFKTGPRFQSSMSEAESESRAGREEVWIEKYRPQTLDDVMGHENIVGRLKSYVSRNDLSHMLFSGPAGTGKTTCATAIARELYGDDWREHFLELNASDERGIDVVRDRIKNFARTSFGGVEYRIIFLDEADALTSDAQSALRRTMEQFSNNVRFILSCNYSSQIIDPIQSRCAVFRFSPLADDAVAEEIRTIAAEEDIELTEDGLDALVYAADGDMRKAINGLQAASVSGDTVDESAVYAITSTARPEEIRTMVQSALDGDFTASRATLDRLLTEEGIAGGDIIDQLHRSIWEFDIDDDAAVRVLERIGETDYRITRGANERVQLEAMLASLAQGE | failed
MNRVYVGTVSAVTDIGVFVNLNKRLRGLIHRRNLGNNRFSEDEEILVQVSGIGLSGEIDLKPVKMDGYKVVEISKEVGRVEIAELENLEHHHHHH | failed
MYEIPWSKPVNINMLDGRCRTVVGPLDAMHCLQSEWPVRDGAYYGCAIRACNAALKRRKRPEDARAAFIAALREAFLTVVPMQEEGHGPRPLE | not failed
PALPYAKSLAPVDLTDCSAQALETARQLGLLQRTKLIVMHVYDAAAAGMLNYAGVDKTSLDDYLVDTRTDAVRDLVRFLEPLRLDDVDYSTVVKEGAGPATDIIEAATELRPDLVVIGTHARRGAVRLLLSSVTEEVLRRLQRDILVVPVRDAGS | failed
MMNDRFTRIKWLVGEEKFQKISQTKVLVCGLGGVGGICVDALYRSGFKNLTLIDADKFEITNQNRQIHSENIGEEKAKVFERIYKVKGIVSKIDENFLKNFDLSEFDLIIDAIDDIPAKVALAHLIDFKKQIFISSTGGARKLDPTRIKTTSIFKTHGDALAKKFRYELRKSGFKGNFDVVFSDEEAHCKDLGSFMGVTASFGLALASLALRKVLAKKS | failed
MSRDDNGWSKLYPDLLRSIFESLSCLDFHRAGTVCSNWYAVSRSCPLYPWRIVFRGKNSVLFDPIQDKIYTKNLLGIDLSKIHCLASYGNWILIVDPRLDFYLLNVFTRETINLPSLESSLRGDRPFRFIRNDDESGYFLELYGTKFLLTWNDFRFEKTAILWVNGRNGDYVVAWAIKQFYIFSYKKIGNDDDDKRWSITCTQCEDMAYKDNKLYVYTFDHYINILDFSGNSPKEPMEENPYLSHPFSFVDAIYKLRLAVTREGKVLIVLSLVGLDKKICIYKLNLKIGDWEIVESLGDEMLIFGHGVTIRAPDKDISGGGLKSDSICFLYDDYLSDHYLTMKRQPICGVFDLATSTITWHTRLEDLSSKICWFVPGCA | failed
QEIRPMPADSAYGVVHISVCNMRDEGKFTSGMSTQALLGMPVKVLQYTGWYEIQTPDDYTGWVHRMVITPMSKEKYDEWNRAEKIVVTSHYGFTYEKPDDDSQTVSDVVAGNRLKWEGSKGHFYKVSYPDGRQAYISRHISQPESKWRASLKQDAESIIKTAYTMIGIPYLWAGTSSKGVDCSGLVRTVLFMHDIIIPRDASQQAYVGERIEIAPDFSNVQRGDLVFFGRKATADRKEGISHVGIYLGNKRFIHALGDVHISSFDPEDECYDEFNTGRLLFATRFLPYINKEKGMNTTDHNLYYLHH | not failed
MRKRARIIYNPTSGKELFKRVLPDALIKLEKAGYETSAYATEKIGDATFEAERALESEYDLLIAAGGDGTLNEVVNGIAEQPNRPKLGVIPMGTVNDFGRALHLPSDIMGAIDVIIDGHTTKVDIGKMNNRYFINLAAGGKLTQVSYETPSKLKSIVGPFAYYIKGFEMLPQMKAVDVRIEYDDNIFQGEALLFLLGLTNSMAGFEKLVPDAKLDDGYFTLIIVEKANLAELGHIMTLASRGEHTKHPKVIYAKAKSINISSFTDMQLNVDGEYGGKLPANFLNLEQHIEIFTPKDVFNEELLENDTITDITPDKQ | not failed
MALKDYALEKEKVKKFLQEFYQDDELGKKQFKYGNQLVRLAHREQVALYVDLDDVAEDDPELVDSICENARRYAKLFADAVQELLPQYKEREVVNKDVLDVYIEHRLMMEQRSRDPGMVRSPQNQYPAELMRRFELYFQGPSSNKPRVIREVRADSVGKLVTVRGIVTRVSEVKPKMVVATYTCDQCGAETYQPIQSPTFMPLIMCPSQECQTNRSGGRLYLQTRGSRFIKFQEMKMQEHSDQVPVGNIPRSITVLVEGENTRIAQPGDHVSVTGIFLPILRTGFRQVVQGLLSETYLEAHRIVKMNKSEDDESGAGELTREELRQIAEEDFYEKLAASIAPEIYG | failed
MQLVVARIGRAHGIKGEVTVEVRTDEPELRLGPGAVLATDPASVGPLTIETGRVHSGRLLLRFEGVRDRNGAEALRNTLLIAEVDPDEVPEDPDEYYDHQLMDLDVVTKDGTEVGRITEISHLPSQDLFVVERSDGSEVYIPFVEEIVVEIDLEEQRAVIDPPPGLIDDRAEVDSSDTEAATEADALEHHHHHH | not failed
MAPNASCLCVHVRSEEWDLMTFDANPYDSVKKIKEHVRSKTKVPVQDQVLLLGSKILKPRRSLSSYGTDKEKTIHLTLKVVKPSDEELPLFLVESGDEAKRHLLQVRRSSSVAQVKAMIETKTGIIPETQIVTCNGKRLEDGKMMADYGIRKGNLLFLASYCIGG | failed
METISKEFKSKVSLFWEAFNKNDFESAKTQCNQMKKSFSDEANPHYLLGIIYFEEKRFDKSIIELKLALKKDSERKLGGYIYYVIGLNYSKNTFSNMENLNSIYDIELARNAFESALTYENFNESNITELSQIYRNKFKLIQLFQKGLKKFPTKTSFYIKLSAIYKKNGNISERESLLLDAKENIKSFHILFELGELYLEKSQYKCSREHFYLAEKLREGSGLEFAVQVMIGNTHVNEGNPNLANEYYINAFHKEKNSCNFWFGLFGILASSAETSFADLKNILEEMEVTSQLTIEEWYGEMPLYYGSNYFSFDFPIDEKHLINRLNLFKKQQRDTDILGKIELIKASLYEFSSEDTKYIKCLKSAINYFSQHSYDFIFNKLAARYDYLLSHLQEEGKSVNTLINEIVDYLEDDYSFRKEYIEYLPTIVTILFEEKKHKKIIEIKNIFTEKQIDKADIWFHVGYAFNELGRPKESKYAYECNIKINGECTSTHNNLALLLENEGKNSDAVAMFQKALMINVDDEKLQSNLQNALDKQKAKSLLTYKNEAIDKSFVGAVGLLKSETFFSMETLLNFIDRSKKENSFNDGILSIQDEMFPDLLRTNLVKSLELKNDWLIKNYIALTEEIDEYGIPYYQVNPYLEPEIVKLKRMTVESELPKEWTEGIGNITIFKLDELDYFSIKHKISKINKKFKPLVMRDFNELIFNHLVGNRKAVVVLSGSFVELLLTYYCEKKRIKAVEYTCKDSAKPKKKKLYDCVLFDLISFIEEKRIFGNDFFLLSNLSRVYRNFIHPGVELKNSLDKSKSDLCFISSLEILKKII | failed
MNKITSAFIRVLRQSSSSGGTGNLLGRQLSYKSDLSLDKIYPGARLQIYTPPPPPSGSDKFSGFIPMDRLEITYSRSSGPGGQHVNTVNTKVDVRFKVAQADWIPEQTRQKLLKVLANRITKDGYFYIKSDLTRSQQMNLADALEKLRTIIRSQEAVAPAPPSEETLEKLRRRQERAVRERLQLKRGRAQVKADRQGPSGLDL | failed
MNDGRMLGLFTFIIMIISIISQIIALSASQRNIYLGIRIPQEEINNTKIKAIGKRYIWSNLLLGIPIAALLSYCVYKINNDILYLAAIILFMAISFLLYYYYNRKILKIKKEEGWLKTKKQEIVIDTSFAKRKSERMVAGSRWFLLSLIFIVICLIVNVKQYPNIPYRYPTHWDINGRPNAYSLKSYMTIFSMPINQLILIAVMFFSYKITFWSKNELDGRNPKDSGERNIKFRNVWAIYAIVVNFFLQIIFLIQDFQIMHIVNTNPKFIIIAVITMTIVVICSSLIISIKVGQGGSRLKTRGNKSEFGINMRDDDKYWRLGNLFYCNKNDPSIFVQKRFGIGWTVNVGNKFGVLFYVLIIVFLIICIAISR | failed
MSLTPYEPFRHLDQMRREFDRFFPDFPIDLPNRHLTLSPKMDVHETDHEVILECDIPGLESKEDLQIDVEPRSVRIEGRIKRSKEVHDERFYRREREIGHFRRVVPLPAEVAEDDIRAAYRNGVLEVRMRKRLDDRRRTIDVEFHLEHHHHHH | not failed
MDAAKRGFPPVVDAKTCVLILGSLPGDASLAAGQYYGHPRNAFWRLMEGVIDAPLVVRAYEDRLVTLLAHGVGLWDVIETARRPGSLDAAIREPAANDLMALIDTLPALRLVAFNGGTAGRLGGRLIGTRVSTLALPSSSPAYAARTFAQKAAAWAALRDGLADTYSRPHPEPVEGPGRPPRRGRPAPRQP | failed
MGGSFYPCLSVSKRAIGKNTAYSTLYYLQYTIKKASFSNVIYTSENNNIFRVSLLTFSFFYFTRTVKNSHMPTTTLEQQRTRQGVLFALGAYTIWGIAPIYFKTISEVSPLEILSHRVIWSFFFLAALLSFSKGWATVINTLKDKKKMTYLITTSVLIGANWLIFIWAVNAGHMLDASLGYYINPLLNVVLGMIFLGERLRRLQWVAVLFASAGVLIQLITFGSIPVVAIALACSFGFYGLLRKKVAMDAQTGLFIETLVMLPLTLIYLLFIADSATSNFSENTLNLNLLLIAAGIITTVPLLCFTGAATRLKLSTLGFFQYIGPSLMFLLAVGLYGEEFSADKAITFGFIWGALVIFTTDAFMARNKKNK | failed
MNVNKPTTEKKLIDLNNDIIHNFDVSIVMSFYKRYTEFRKVLPHNAPYLQRNGIEVIIVLDDPDEKSELLMLLQNYPFINWKLIINERKHAPRNHASVLNVGLKHATKKYILQIDPEVEFLTDIIWQMRDAIEKYPMHYILAMMAYVPYEQELTENNIKELDFIPWGNLMVERNHLYKLHGYDETFITWGGEDNNMRARLDMSGIKKFILPEAKTIHREKNYDPNERSKRINKHSISDWRKMNYPSEAIANKDIWGSEFNKVIYDWQDNQYAKDLCYTYLQQFIGFEIRHPAAFRKRHKKIVLCQAYNEEKLIEGFLTNMANYFDGIILLDDESTDRTWDLAIHDKIILKVKKKRSGFNDLENRNILLDLSAFFQSEWFCFMDIDERFDERFTNFSEFENNKEIHVVSFRGVYLWNDEQSYKGDIPNSNKGILTVYRMFRPIGHTHINTHKKLHFIATPYFTNTWQSNILFKDYGSMKENDRIRKYERYIQEDQQKDMSSGYDYLLNSENLYQLDKIEEYLEHHHHHH | failed
MPGHVPPDLAVIEVTERRTRRSPAGYRPRMSEVVQVGAWGLLAGSALLLGAAIGFGVRVSQKVIATVMAFGAGVLISAVSYELVGEAYEQAGLAPAAIGTVIGAAAYTLGNLWLARRGARHRKRSGHHTAQAQPSEAQQGGSGLALAFGALLDGVPESAVIGVSLLDGGTVSTVTVAAVFISNVPEGLSSSAGMKRAGRGTTYVFGVWGAIAATSTLAAVLGYTVVGAFSPAVIAAVTAVAAGAILAMIADTMIPEAFEDAHLAIGLVTVSGFLVSFALSHV | failed
MYLPTHFKQENQAELFDLIEHHPLGTLIVMHADGLEVNHIPFELDRLHLPAGILRGHIAKANPLASLLSEPQSAYVIFQAEQHYISPNWYPGKQEHHRVVPTWNYRVVHATGQLSVIEDQKYLRGVLARLTRQHEADQPAPWRLSDAPADFIEQQLEKIMAIEFNIESIIGKFKLSQN | failed
MSYAKEMLDAIEAGQMETAKQLFTQVLAHDDDETQYNLAEELYALGFNGQAKRLYQGLLGRYPDQGDLATALADIAVSDGDTDAALNYLSRIQPGDPAYVQSLVSAADVYQTLGLYEVSEQKLLEAKRLAPDEPVVTFALGEFYFDWGHFAEAISAYNELLAAGTTELAGVNIEARLAASLAQTGQYEDAVAAYEDVGVDALDLNGRFELGGLYLQLDDPAKAITNLQAVIDSDPSYANAYLPLARAYEAQNQPDKALDTVQAGVMVDDTNPTLYALGGKLALSEDNVKLAETYLQKALAIDPEDQGNMLAWSNFLVQEERDQENVDFLDQIDRSGDVDPQIYWNMAKSYDRLENIKKARENYLLAFNRFQDSPDFLHDIIDFFQSTGARAELKAALVRYLKLVPTDDEMQARLDELNAETDLEHHHHHH | not failed
